Results on six molecules are retold here after PMC4428071, “Structural basis for epitope masking and strain specificity of a conserved epitope in an intrinsically disordered malaria vaccine candidate” (Scientific Reports, 2015).

Where only a bound is given, the exact number is not on record here.

Sequence of mouse monoclonal antibody 6D8 (mouse) (heavy, as listed by the source, chain 1 of 2): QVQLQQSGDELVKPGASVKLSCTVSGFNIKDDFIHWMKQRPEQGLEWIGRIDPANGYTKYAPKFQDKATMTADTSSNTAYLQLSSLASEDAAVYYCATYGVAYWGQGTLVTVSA
Sequence of mouse monoclonal antibody 6D8 (mouse) (light, as listed by the source, chain 2 of 2): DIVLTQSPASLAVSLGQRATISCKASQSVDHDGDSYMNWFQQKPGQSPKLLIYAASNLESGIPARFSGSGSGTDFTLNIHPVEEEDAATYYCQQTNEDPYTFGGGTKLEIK

One test concerns the target mouse monoclonal antibody 6D8 (mouse). The experiment in a line: SPR.
The molecule Ac-FINNAYNMSIRRS-NH2 [MSP2_(11-23)] registered a Kd of 0.006 µM. In the case of Ac-NAYNMSIRRS-NH2 [MSP2_(14-23)], the Kd came out at 0.016 µM. The same measure, in the same setting: the same measure for Ac-NAYNMSIRR-NH2 [MSP2_(14-22)]: 0.006 µM; for Ac-NNAYNMSIRR-NH2 [MSP2_(13-22)]: 0.014 µM.

As to Ac-AYNMSIRR-NH2 [MSP2_(15-22)], the Kd worked out at 0.087 µM. Ac-AYNMSIRRS-NH2 [MSP2_(15-23)] came in with a Kd of 0.034 µM.

The target of a further test is 6D8 scFv (mouse). The experiment in a line: ITC; Microcal ITC-200; MSP2 or peptide titrated into 6D8 scFv or 6D8 IgG.
Sequence of 6D8 scFv (mouse) (heavy, as listed by the source, chain 1 of 2): as the sequence (heavy, as listed by the source, chain 1 of 2) above
Sequence of 6D8 scFv (mouse) (light, as listed by the source, chain 2 of 2): as the sequence (light, as listed by the source, chain 2 of 2) above
Take Ac-NAYNMSIRR-NH2 [MSP2_(14-22)]: the Kd is less than 0.005 µM.
